Test results from publication PMC10018337.

What was measured:
Assay in all cases: EMSA
[1] = target: T1, CeMETT10-MTD (Caenorhabditis elegans, UniProt Q09357 1-314)
T1 sequence: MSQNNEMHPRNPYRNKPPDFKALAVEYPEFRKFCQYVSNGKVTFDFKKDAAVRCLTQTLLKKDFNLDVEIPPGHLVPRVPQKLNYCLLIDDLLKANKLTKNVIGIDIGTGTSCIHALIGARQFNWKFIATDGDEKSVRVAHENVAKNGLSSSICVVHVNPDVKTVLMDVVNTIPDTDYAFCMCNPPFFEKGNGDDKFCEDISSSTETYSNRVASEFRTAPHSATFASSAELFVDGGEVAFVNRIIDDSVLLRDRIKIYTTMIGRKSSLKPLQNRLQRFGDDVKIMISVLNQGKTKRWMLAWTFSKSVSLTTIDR

[2] = target: T2, CeMETT10-FLΔL_RRR/7E (Caenorhabditis elegans, UniProt Q09357 1-479, R360E;A361E;R362E;K363E;R364E;A365E;K366E;del386-430)
T2 sequence: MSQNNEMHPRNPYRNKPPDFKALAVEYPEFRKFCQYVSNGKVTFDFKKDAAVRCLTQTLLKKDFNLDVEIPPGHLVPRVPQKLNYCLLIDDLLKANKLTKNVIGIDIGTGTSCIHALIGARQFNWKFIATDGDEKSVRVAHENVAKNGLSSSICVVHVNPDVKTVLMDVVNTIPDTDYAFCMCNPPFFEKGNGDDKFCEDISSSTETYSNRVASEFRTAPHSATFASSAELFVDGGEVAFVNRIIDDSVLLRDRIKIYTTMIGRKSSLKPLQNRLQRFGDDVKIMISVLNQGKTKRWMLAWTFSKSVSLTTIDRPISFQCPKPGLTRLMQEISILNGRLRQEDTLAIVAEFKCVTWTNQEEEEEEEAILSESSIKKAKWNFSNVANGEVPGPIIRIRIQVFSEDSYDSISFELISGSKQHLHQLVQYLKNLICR

[3] = target: T3, CeMETT10-FLΔL (Caenorhabditis elegans, UniProt Q09357 1-479, del386-430)
T3 sequence: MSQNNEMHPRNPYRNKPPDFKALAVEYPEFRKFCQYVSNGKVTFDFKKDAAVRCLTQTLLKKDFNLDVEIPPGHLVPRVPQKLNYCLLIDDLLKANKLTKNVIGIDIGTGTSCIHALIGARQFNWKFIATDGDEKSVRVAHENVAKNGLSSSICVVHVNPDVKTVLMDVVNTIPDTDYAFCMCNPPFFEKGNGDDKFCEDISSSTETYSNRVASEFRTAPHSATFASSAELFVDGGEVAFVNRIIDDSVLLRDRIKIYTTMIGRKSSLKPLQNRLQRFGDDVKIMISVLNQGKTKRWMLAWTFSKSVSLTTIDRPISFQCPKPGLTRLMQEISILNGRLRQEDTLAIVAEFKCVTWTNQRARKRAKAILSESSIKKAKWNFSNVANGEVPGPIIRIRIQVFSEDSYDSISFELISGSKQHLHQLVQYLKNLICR

B1: sams-hp-ls (structured_RNA)
RNA: GGCAACAAUAUGUUUCUUUACCUGUUACAACGGUUACUUUGAUUACAGAAACGGUGACUAAAACGGGUAUGAUCAUGUUGUGCCC
Which Kd [1] does the source give for B1 here?
The Kd was 22.3 µM.

What about the Kd [2] of the same binder?
Its Kd is 8.3 µM.

What about the Kd [3] of the same binder?
Its Kd is 0.14 µM.
